Test results as given in paper doi:10.1101/2025.07.08.663703, “Recruitment of Mre11 to recombination sites during meiosis” (bioRxiv, 2025).

B1: Mre11 (protein)
chain: MDYPDPDTIRILITTDNHVGYNENDPITGDDSWKTFHEVMMLAKNNNVDMVVQSGDLFHVNKPSKKSLYQVLKTLRLCCMGDKPCELELLSDPSQVFHYDEFTNVNYEDPNFNISIPVFGISGNHDDASGDSLLCPMDILHATGLINHFGKVIESDKIKVVPLLFQKGSTKLALYGLAAVRDERLFRTFKDGGVTFEVPTMREGEWFNLMCVHQNHTGHTNTAFLPEQFLPDFLDMVIWGHEHECIPNLVHNPIKNFDVLQPGSSVATSLCEAEAQPKYVFILDIKYGEAPKMTPIPLETIRTFKMKSISLQDVPHLRPHDKDATSKYLIEQVEEMIRDANEETKQKLADDGEGDMVAELPKPLIRLRVDYSAPSNTQSPIDYQVENPRRFSNRFVGRVANGNNVVQFYKKRSPVTRSKKSGINGTSISDRDVEKLFSESGGELEVQTLVNDLLNKMQLSLLPEVGLNEAVKKFVDKDEKTALKEFISHEISNEVGILSTNEEFLRTDDAEEMKALIKQVKRANSVRPTPPKENDETNFAFNGNGLDSFRSSNREVRTGSPDITQSHVDNESRITHISQAESSKPTSKPKRVRTATKKKIPAFSDSTVISDAENELGDNNDAQDDVDIDENDIIMVSTDEEDASYGLLNGRKTKTKTRPAASTKTASRRGKGRASRTPKTDILGSLLAKKRK
modifications: left off: Gal4 activation domain (from the vector pGAD-C1), end not stated, kept
B2: Mre11-ΔC49: Mre11 with C-terminal 49 residues (residues 644–692) deleted (protein, UniProt P32829 1-643, looked up, fragment)
chain: MDYPDPDTIRILITTDNHVGYNENDPITGDDSWKTFHEVMMLAKNNNVDMVVQSGDLFHVNKPSKKSLYQVLKTLRLCCMGDKPCELELLSDPSQVFHYDEFTNVNYEDPNFNISIPVFGISGNHDDASGDSLLCPMDILHATGLINHFGKVIESDKIKVVPLLFQKGSTKLALYGLAAVRDERLFRTFKDGGVTFEVPTMREGEWFNLMCVHQNHTGHTNTAFLPEQFLPDFLDMVIWGHEHECIPNLVHNPIKNFDVLQPGSSVATSLCEAEAQPKYVFILDIKYGEAPKMTPIPLETIRTFKMKSISLQDVPHLRPHDKDATSKYLIEQVEEMIRDANEETKQKLADDGEGDMVAELPKPLIRLRVDYSAPSNTQSPIDYQVENPRRFSNRFVGRVANGNNVVQFYKKRSPVTRSKKSGINGTSISDRDVEKLFSESGGELEVQTLVNDLLNKMQLSLLPEVGLNEAVKKFVDKDEKTALKEFISHEISNEVGILSTNEEFLRTDDAEEMKALIKQVKRANSVRPTPPKENDETNFAFNGNGLDSFRSSNREVRTGSPDITQSHVDNESRITHISQAESSKPTSKPKRVRTATKKKIPAFSDSTVISDAENELGDNNDAQDDVDIDENDIIMVSTDEEDA
B3: Mre11^IDR: eGFP-tagged Mre11-IDR (524-677) (protein, UniProt P32829 524-677, looked up, fragment)
chain: NSVRPTPPKENDETNFAFNGNGLDSFRSSNREVRTGSPDITQSHVDNESRITHISQAESSKPTSKPKRVRTATKKKIPAFSDSTVISDAENELGDNNDAQDDVDIDENDIIMVSTDEEDASYGLLNGRKTKTKTRPAASTKTASRRGKGRASRT
modifications: eGFP tag
B4: Mer2-EQEK: Mer2 with residues E50, Q54, E57, and K61 mutated to alanine (protein)
chain: MVARGRTDEISTDVSEANSEHSLMITETSSPFRSIFSHSGKVANAGALEASDKAILAWAGALELESMELRENSDKLIKVLNENSKTLCKSLNKFNQLLEQDAATNGNVKTLIKDLASQIENQLDKVSTAMLSKGDEKKTKSDSSYRQVLVEEISRYNSKITRHVTNKQHETEKSMRCTQEMLFNVGSQLEDVHKVLLSLSKDMHSLQTRQTALEMAFREKADHAYDRPDVSLNGTTLLHDMDEAHDKQRKKSVPPPRMMVTRSMKRRRSSSPTLSTSQNHNSEDNDDASHRLKRAARTIIPWEELRPDTLESEL
modifications: left off: His, end not stated, kept | SUMO, end not stated, kept
notes: Mer2 with residues E50, Q54, E57, and K61 mutated to alanine

Assays:
Mer2 [1] = test: In vitro colocalization of Mre11 with Mer2 condensates; type: binding, S. cerevisiae; conditions: 200 nM Alexa594Mer2 and eGFPMre11, assembled separately on DNA then mixed 1:1 for 30 min
Experimental: Proteins were diluted to a 10× stock of their appropriate working concentrations in their respective storage buffers. […] Unless specified otherwise, all reactions contained 400 nM ^Alexa488Mre11 or 100 nM ^eGFPMRX. A typical 20 μL binding reaction contained 2 μL protein of 10× stock of indicated concentration, 10 μL of 2× reaction buffer, and 150 ng of supercoiled pUC19 (5.7 nM). Typical reactions were assembled at 30°C for 30 mins with gentle mixing every 5 mins, unless mentioned otherwise. 5 μL was dropped onto a microscope slide and covered with a coverslip. All images were captured on a Zeiss Axio Observer with a 100×/1.4 NA oil immersion objective except for images provided in Figure 4G which were captured on Leica Stellaris DMI 8 confocal microscope with a 63x/1.2 NA water immersion objective. Images were analyzed with ImageJ using a custom-made script. In brief, 129.24 × 129.24-μm (2048 × 2048-pixel) images were thresholded to mean intensity of the background plus three times the standard deviation of the background. Masked foci were counted and the intensity inside the focus mask was integrated. Data points represent averages of at least 8–10 images per sample. Data were analyzed using Graphpad Prism 10.4.0.

pUC19 plasmid = test: Gel shift assay of Mre11 and truncations; type: binding
Experimental: Proteins were diluted to their appropriate working concentrations in their respective storage buffers. […] Reactions were assembled at 30°C for 30 mins and resolved in a 1% agarose (SeaKem LE Agarose, Lonza) at 60 V for 120 mins at 4°C. Gels were stained with SYBR Gold Nucleic Acid Gel Stain (S11497, Invitrogen) for 40 mins and visualized with Amersham Typhoon biomolecular imager (Cytiva).

plasmid DNA (pUC19) = test: In vitro condensation of Mre11 truncations with plasmid DNA; conditions: eGFP-tagged protein, 200 nM Mre11 for ΔIDR and ΔC49
Experimental: Proteins were diluted to a 10× stock of their appropriate working concentrations in their respective storage buffers. Reactions were performed in a buffer containing 25 mM HEPES-HCl (pH 7.5), 2 mM DTT, 1 mg/ml BSA, 5% glycerol, 5 mM MgCl2, 5% PEG-3350, and NaCl. Considering the salt contributed by the protein dilution buffer, final concentration of NaCl in a reaction was adjusted to 120 mM. Unless specified otherwise, all reactions contained 400 nM ^Alexa488Mre11 or 100 nM ^eGFPMRX. A typical 20 μL binding reaction contained 2 μL protein of 10× stock of indicated concentration, 10 μL of 2× reaction buffer, and 150 ng of supercoiled pUC19 (5.7 nM). Typical reactions were assembled at 30°C for 30 mins with gentle mixing every 5 mins, unless mentioned otherwise. 5 μL was dropped onto a microscope slide and covered with a coverslip. All images were captured on a Zeiss Axio Observer with a 100×/1.4 NA oil immersion objective except for images provided in Figure 4G which were captured on Leica Stellaris DMI 8 confocal microscope with a 63x/1.2 NA water immersion objective. Images were analyzed with ImageJ using a custom-made script. […] Masked foci were counted and the intensity inside the focus mask was integrated. […] Data were analyzed using Graphpad Prism 10.4.0.

Mer2 [2] = test: Co-expression NiNTA pulldown of MBP-Mre11-C49 (prey) with HisSUMO-Mer2 (bait); type: binding, S. cerevisiae; conditions: co-expression in E. coli, anti-MBP elution/input signal normalized to wild type, at least seven independent samples
Source text: The vector for expression of ^MBPMre11-C49 and ^HisSUMOMer2 (pCCB1040) was based on a pET-Duet1 vector with the sequence coding for ^MBPMre11-C49 cloned within the first position (SacI site) and the sequence coding for ^HisSUMOMer2 cloned at the second position (XhoI site). The EQEK mutations and LLK mutations were introduced by PCR amplification of pCCB1040 with primers cb1561 and cb1562, and pp84 and pp85, followed by phosphorylation and self-ligation to yield plasmids pry59 and pry61, respectively.
Wild-type and mutant MBP-tagged Mre11-C49 and HisSUMO-tagged Mer2 were co-expressed in 50 mL of E. coli BL21 cultures and purified by affinity chromatography on Ni-NTA resin following a procedure similar to that described above. Briefly, cells were lysed by sonication and centrifuged at maximum speed for 30 mins at 4°C on a table-top centrifuge. A small fraction of the supernatant was collected as ‘Input’ and the remainder was incubated with 120 μL Ni-NTA resin, pre-equilibrated with wash buffer (25 mM HEPES pH 7.5, 20 mM imidazole, 0.1 mM DTT, 0.1 mM PMSF, 10% glycerol), for 1 hour on a rotating wheel at 4°C. The resin was washed twice with 2 ml in batch and five times with 2 ml on column before eluting with 250 μL of 500 mM imidazole in wash buffer. […]

Row | Molecule | colocalization with Mer2 (Mer2 [1]) | species of reduced electrophoretic mobility (pUC19 plasmid; 1 nM pUC19, higher protein concentration) | condensate formation in vitro (plasmid DNA (pUC19)) | DNA binding (pUC19 plasmid; 1 nM pUC19, 25 mM HEPES pH 7.5, 5 mM EDTA, 100 mM NaCl, 30°C 30 min, two independent experiments for truncations) | interaction of Mre11-C49 and Mer2 in pulldown (anti-MBP immunoblot) (Mer2 [2])
1 | B1 | nearly absolute colocalization | – | – | – | –
2 | B2 | strongly reduced colocalization as compared to wild-type Mre11 | absent | strongly reduced Mre11 foci intensity | – | –
3 | B3 | – | – | failed to form condensates | reduced DNA binding as compared to the WT or Mre11^ΔIDR | –
4 | B4 | – | – | – | – | strongly decreased the interaction between the two partners
